Data on two molecules can be found in publication PMC8609364, “A Selective Tether Recruits Activated Response Regulator CheB to Its Chemoreceptor Substrate” (mBio, 2021).

For assay [1], the system named is pentapeptide-bearing Tar4E and Tar4Q. Briefly: CheB binding to pentapeptide-bearing Tar, 4E and 4Q (biolayer interferometry). Also on record: species or system E. coli. The settings on record: Tar4E versus Tar4Q. Here is the method: (§1) We determined the kinetics of association and dissociation of methylesterase/deamidase CheB in its low- and high-activity form with the E. coli aspartate chemoreceptor Tar using biolayer interferometry ([22], [23]) and isolated receptor homodimers in Nanodiscs ([24], [25]). Apparent rate constants of association and dissociation were derived from global fits of time courses for binding and release (see Fig. S1 in the supplemental material). Equilibrium dissociation constants were calculated from those apparent rate constants.
(§2) E. coli CheB and Salmonella CheB D56C/C207S/C309S and D56C/S164A/C207S/C309S were purified as described previously ([11]). CheBC (amino acids [aa] 153 to 349) was purified using the procedure of West et al. ([40]), except that Bio-Gel P-60, was not used. […] The extent of modification was 59% for the former and 60% for the latter determined by reversed phase chromatography essentially as described previously ([26]) and confirmed by Nano LC-Nanospray QTQF mass spectroscopy. […]
(§3) Kinetics of CheB association and dissociation with Nanodisc-embedded Tar biotinylated at L378C were determined using biolayer interferometry ([22], [23]) as measured by a BLItz instrument (ForteBio, Menlo Park, CA, USA) and described in reference. […]

Assay [2] relates to Tar4EΔpp and Tar4QΔpp. Nature of the assay: CheB binding to pentapeptide-lacking Tar, 4E and 4Q (biolayer interferometry). Further details: species or system E. coli. Here is the method: as §1, §2, §3
For orientation: In BLI a coated tip is dipped into the sample, and binding shifts an interference pattern.

The target of assay [3] is Tar4Q L378C, E. coli aspartate chemoreceptor Tar, all-glutaminyl form with carboxyl-terminal pentapeptide, homodimer in Nanodiscs (E. coli) (UniProt P07017). Nature of the assay: BLI; BLItz; biotinylated Tar homodimers in Nanodiscs held on an avidin sensor tip, CheB or CheBC in solution; 50 mM Tris-HCl pH 7.5, 10% glycerol, 5 mM MgCl2, 50 mM KCl, 2% BSA, 2 mM DTT; global fit, apparent rate constants, KD calculated from kon and koff.

Assay [4] has as its target Tar4QΔpp-6H L378C, E. coli Tar lacking the carboxyl-terminal pentapeptide, all-glutaminyl form, homodimer in … (E. coli, UniProt P07017 1-553, L378C, biotinylated at L378C). The description is as above. Conditions: both partners purified.
For assay [5], the target named is Tar4E L378C, E. coli aspartate chemoreceptor Tar, all-glutamyl form with carboxyl-terminal pentapeptide, … (E. coli, UniProt P07017 1-553, L378C, biotinylated at L378C). Nature of the assay: SPR.
In assay [6] the target is Tar4QΔpp-6H L378C, E. coli Tar lacking the carboxyl-terminal pentapeptide, all-glutaminyl form, homodimer in … (E. coli, UniProt P07017 1-553, L378C, biotinylated at L378C). Nature of the assay: SPR.
In assay [7] the target is Tar4Q L378C, E. coli aspartate chemoreceptor Tar, all-glutaminyl form with carboxyl-terminal pentapeptide, … (E. coli, UniProt P07017 1-553, L378C, biotinylated at L378C). Briefly: SPR.
In assay [8] the target is Tar4EΔpp-6H L378C, E. coli Tar lacking the carboxyl-terminal pentapeptide, all-glutamyl form, homodimer in … (E. coli, UniProt P07017 1-553, L378C, biotinylated at L378C). Nature of the assay: SPR. In general terms: In SPR one partner is held on a chip, and binding of the other changes the refractive index at the surface.
Assay [9] deals with Tar4E and Tar4Q with or without pentapeptide. Briefly: CheBC binding to pentapeptide-bearing and pentapeptide-lacking Tar (biolayer interferometry). Also on record: species or system E. coli. Here is the method: as §1
E. coli CheB and Salmonella CheB D56C/C207S/C309S and D56C/S164A/C207S/C309S were purified as described previously ([11]). CheBC (amino acids [aa] 153 to 349) was purified using the procedure of West et al. ([40]), except that Bio-Gel P-60, was not used. CheB D56C/C207S/C309S and CheB D56C/S164A/C207S/C309S were modified to create a disulfide-linked phosphoryl group on D56C following the procedure described in reference but using a 10-fold molar excess of DTNB [Ellman’s reagent, 5,5′-disulfanediylbis(2-nitrobenzoic acid)] rather than 90-fold and a 50-fold molar excess Na3SPO3 rather than 1,000-fold. The extent of modification was 59% for the former and 60% for the latter determined by reversed phase chromatography essentially as described previously ([26]) and confirmed by Nano LC-Nanospray QTQF mass spectroscopy. Membrane scaffold protein MSP1D1(-) ([41]) was purified as described previously ([25]). Tar4E L378C, Tar4Q L378C, Tar4EΔpp-6H L378C, and Tar4QΔpp-6H L378C were purified, incorporated into Nanodiscs at approximately one receptor dimer per disc, and biotinylated at L378C as described previously ([23], [42]). […] These activities were confirmed for representative samples used in our analyses. […]
as §3

B1: methylesterase/deamidase CheB from E. coli, low-activity, unphosphorylated form (enzyme, UniProt P07330 1-349, looked up)
chain: MSKIRVLSVDDSALMRQIMTEIINSHSDMEMVATAPDPLVARDLIKKFNPDVLTLDVEMPRMDGLDFLEKLMRLRPMPVVMVSSLTGKGSEVTLRALELGAIDFVTKPQLGIREGMLAYNEMIAEKVRTAAKASLAAHKPLSAPTTLKAGPLLSSEKLIAIGASTGGTEAIRHVLQPLPLSSPALLITQHMPPGFTRSFADRLNKLCQIGVKEAEDGERVLPGHAYIAPGDRHMELSRSGANYQIKIHDGPAVNRHRPSVDVLFHSVAKQAGRNAVGVILTGMGNDGAAGMLAMRQAGAWTLAQNEASCVVFGMPREAINMGGVCEVVDLSQVSQQMLAKISAGQAIRI
notes: CheB methylesterase/deamidase of E. coli, unphosphorylated, from plasmid pCW/cheB; measured with 2 mM DTT in the buffer; also called low-activity CheB; unmodified CheB; source: E. coli K-12 RP3098 with pCW/cheB, purified
As for B1, in assay [1], the “effect of receptor signaling state on binding” value is listed as “the signaling state of the chemoreceptor coiled-coil body did not influence the binding of its pentapeptide to low-activity CheB”. In addition, the “preference for substrate (4Q) versus product (4E) form” value in assay [2] (Tar4QΔpp versus Tar4EΔpp) is given as “not significantly different”. Besides, the “fold weaker than binding to pentapeptide / pentapeptide-bearing receptor” value in assay [2] (ratio of KD, Tar4Δpp versus pentapeptide-bearing) is “approximately fourfold”. In addition, the figures for the Kd in assay [3] and in assay [4] were 160 µM and 590 µM, respectively.

B2: CheBC, catalytic domain of E. coli CheB lacking the regulatory domain and linker (domain or fragment)
chain: LSSEKLIAIGASTGGTEAIRHVLQPLPLSSPALLITQHMPPGFTRSFADRLNKLCQIGVKEAEDGERVLPGHAYIAPGDRHMELSRSGANYQIKIHDGPAVNRHRPSVDVLFHSVAKQAGRNAVGVILTGMGNDGAAGMLAMRQAGAWTLAQNEASCVVFGMPREAINMGGVCEVVDLSQVSQQMLAKISAGQAIRI
As for B2, the Kd in [5] amounted to 590 µM; in assay [6], 1200 µM; in [7], 1400 µM; in assay [8] it was 660 µM. Moreover, the “binding to chemoreceptors versus CheB-P*” value in assay [9] (compared with activated phosphorylation mimic CheB-P*) is on record as “bound much more weakly to chemoreceptors than the activated phosphorylation mimic CheB-P*”. Besides, the “preference for product form Tar4E versus substrate form Tar4Q” value in [9] (ratio of KD) is listed as “approximately twofold”. Besides, the “effect of presence or absence of pentapeptide on binding” value in assay [9] (with versus without NWETF) is “no significant difference in binding in the presence or absence of pentapeptide”.
